Data: patent JP2012055312A

Biological target: ビオチン−IL−6 (UniProt P05231)
Test: Luminex-based assay of IL-6 binding to IL-6 receptor (solid-phase sIL-6R/gp80)

Chain of UniProt P05231 (P05231 30-212 limits assumed): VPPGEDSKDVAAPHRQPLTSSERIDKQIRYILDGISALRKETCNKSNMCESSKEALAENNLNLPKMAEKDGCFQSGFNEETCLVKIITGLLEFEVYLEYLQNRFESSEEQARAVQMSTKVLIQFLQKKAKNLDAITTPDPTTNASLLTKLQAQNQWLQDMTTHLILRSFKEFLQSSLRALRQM

B1: キメラCLB8 (antibody, V domains shown)
VH: EVQLVESGGKLLKPGGSLKLSCAASGFTFSSFAMSWFRQSPEKRLEWVAEISSGGSYTYYPDTVTGRFTISRDNAKNTLYLEMSSLRSEDTAMYYCARGLWGYYALDYWGQGTSVTVSS
VL: QIVLIQSPAIMSASPGEKVTMTCSASSSVSYMYWYQQKPGSSPRLLIYDTSNLASGVPVRFSGSGSGTSYSLTISRMEAEDAATYYCQQWSGYPYTFGGGTKLEIK
For B1, the percent inhibition of IL-6 binding to IL-6 receptor was 100%.
